In the supplement of paper PMC12667976:

B1: library; numbered along this chain (parent)
chain: MATDAALRRLLRLHRTEIAVAVDSAFPLLHALADHDVVPEDKFQETLHLKEKEGCPQAFHALLSWLLTQDSTAILDFWRVLFKDYNLERYGRLQPILDSFPKDVDLSQPRKGRKPPAVPKALVPPPRLPTKRKASEEARAAAPAALTPRGTASPGSQLKAKPPKKPESSAEQQRLPLGNGIQTMSASVQRAVAMSSGDVPGARGAVEGILIQQVFESGGSKKCIQVGGEFYTPSKFEDSGSGKNKARSSSGPKPLVRAKGAQGAAPGGGEARLGQQGSVPAPLALPSDPQLHQKNEDECAVCRDGGELICCDGCPRAFHLACLSPPLREIPSGTWRCSSCLQATVQEVQPRAEEPRPQEPPVETPLPPGLRSAGEEVRGPPGEPLAGMDTTLVYKHLPAPPSAAPLPGLDSSALHPLLCVGPEGQQNLAPGARCGVCGDGTDVLRCTHCAAAFHWRCHFPAGTSRPGTGLRCRSCSGDVTPAPVEGVLAPSPARLAPGPAKDDTASHEPALHRDDLESLLSEHTFDGILQWAIQSMARPAAPFPS

Variants of: B1
Assay: AIRE transcriptional activation functional score (insulin promoter-GFP; nonsense median 0, synonymous median 1) (normalised score); higher = higher AIRE activity (more reporter activation)
Conditions: with insulin promoter-GFP reporter in HEK293
Description: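 Deep mutational scan of full-length human AIRE (codon-optimized cDNA, DT-POPCode NNN libraries over three regions) integrated at a Bxb1 landing pad in HEK293 cells carrying an insulin core promoter-GFP reporter at a Flp-In site. Cells were sorted for the top 10% GFP about 14 days after transfection. Variant frequency log-ratios (select vs non-select, TileSeq) were rescaled so that the nonsense median is 0 and the synonymous median is 1, then averaged over biological replicates.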

AIRE transcriptional activation functional score: each site, then its substitutions
P109: E 0.161 | F 1.16 | C 0.656 | N -1.94 | D 0.988 | M 2.55 | A 0.959 | Y 0.732 | G 0.279 | W 0.0143 | V 0.635 | L 0.821 | K 0.0515 | Q 0.797 | I 0.666 | R 0.676 | S 1.1 | T 1.54 | H 1.28
S107: K 0.75 | M 1.27 | Q 0.12 | T 0.785 | A 1.04 | N 0.000996 | L 1.05 | D 0.707 | W 1.49 | R 1.25 | Y 0.891 | V 1 | H 1.33 | E 0.777 | P 0.096 | C 1.12 | G 0.704 | F 0.789 | I 1.02
L106: G -0.428 | E 0.17 | R 0.112 | S -1.04 | I -1.62 | K 0.511 | Q -0.722 | N 0.233 | T 0.979 | Y 1.27 | V 0.581 | M 0.0877 | D 0.107 | F 0.883 | A -0.169 | W 0.739 | P -1.47 | C -0.159
K111: A 1.84 | I 1.36 | D -0.0433 | E 0.792 | V 1.37 | H 0.607 | R 0.805 | G 0.901 | S 1.18 | T 0.947 | Y 1.29 | M -0.763 | F 0.696 | L 1.65 | W 0.591 | N 1.36 | C 1.44 | Q -0.0716
K114: N 0.632 | M 0.913 | V 0.691 | S 0.787 | W 1.32 | L 1.03 | H 0.207 | G 0.427 | I 1.03 | Q 0.342 | R 0.793 | D 0.131 | Y 1.51 | A -0.00452 | E 1.46 | T 1.19 | F 0.817 | P 0.1 | C 1.06
P115: C 0.977 | A 0.798 | E 0.792 | D 0.0469
D98: H 1.3 | L 0.703 | E 0.0399 | R 0.621 | P 0.632 | T -0.235 | C 0.078 | S 0.163 | G -0.489 | K -0.443 | Q 2.07 | I 0.501 | V 0.341 | A 0.771 | Y 0.0432 | M 1.55 | N 0.841 | W -0.885 | F 0.239
L97: Y 2.69 | G -0.102 | H 2.81 | A -0.272 | V 0.394 | R 0.805 | E -2.05 | C 0.164 | F 1.29 | N -0.0633 | T -0.118 | I -0.239 | D 0.828 | P 0.384 | W -1.69 | S -0.186 | Q -0.412 | M 0.762
D105: G 0.621 | C 0.824 | H 0.701 | N 0.431 | K 0.591 | T 0.553 | E 0.837 | R 0.481 | Q -0.785 | Y 1.72 | V 0.6 | S -0.0361 | F 0.419 | L 0.724 | A 1.52
I96: V 1.14 | Y 0.139 | W -0.358
R110: V 1.21 | Y 1.61 | A 1.41 | P 0.621 | T 0.97 | N 0.62 | W 1.5 | S 1.01 | Q 0.31 | D 2.5 | E 1.09 | G 1.34 | F 0.927 | K 1.25 | I 1.21 | M 0.295 | L 1.44 | C 0.426
R113: E 0.975 | C 1.3 | G 0.801 | V 0.537 | H 1.08 | W 0.668 | Q 1.18 | I 1.46 | F 1.12 | A 0.951 | K 1.18 | T 0.935 | P 0.537 | Y 0.831 | N 1.68 | D 0.648 | S 1.02 | M 0.565 | L 0.951
Q108: I -0.272 | D 2.03 | F 0.53 | M 2.4 | S 0.618 | V 0.8 | G 0.482 | T 1.35 | A 0.176 | W 0.796 | C 0.53 | N 0.625 | E 1.66 | Y 1.24 | R 0.951 | L 0.0593 | P 0.669 | H -0.231 | K 0.479
V104: H -0.483 | P 0.45 | I 0.904 | T 0.284 | K -0.552 | S -0.0986 | D -0.387 | Y 0.986 | A -0.013 | F 1.15 | C 0.343 | G -0.0739 | R 0.389 | N -0.244 | E 0.823 | L 0.894 | Q 1.13
K102: T 1.28 | V 0.889 | I 1.56 | M 0.607 | Q 2.65 | G 0.563 | P -1.25 | R 2.19 | Y 1.3 | S 0.749 | L 0.643 | N 1.44 | E 1.25 | F 1.34 | H -1.63 | W 1.77 | A -0.872 | C 0.948 | D 0.758
G112: C 0.924 | Q 1.37 | P 1.12 | F 1.03 | E 1.23 | S 0.851 | M 0.488 | Y 0.893 | W 1.45 | L 1.31 | I 1.08 | R 0.278 | T 1.31 | H 0.912 | K 0.268 | V 0.878 | N 0.726 | D 1.13 | A 1.49
D103: Q 0.412 | G 1.32 | K 0.633 | S 1.85 | N 0.59 | M -0.761 | A 0.291 | L 0.32 | H 0.857 | Y 0.675 | R 0.339 | I 0.368 | T 0.146 | F 0.826 | V 0.319 | C 1.14 | P -0.105 | W 0.822 | E 1.66
P101: T -0.239 | V -1.95 | R 0.861 | F -0.111 | W -5.52 | S -0.303 | Y 0.166 | D 0.335 | N 0.226 | M 0.0755 | L 0.222 | G 0.302 | I -0.0207 | A 0.415 | H 1.17
F100: W 1.58 | S 0.172 | Y -0.017 | K 0.809 | N 1.13 | M -0.57 | P 1.03 | E -0.0797 | H 0.644 | T -2.46 | C 0.447 | G -0.223 | I 0.0995 | Q 1.26 | L 0.191 | A 0.229 | D -0.111 | V -0.124 | R -0.588
S99: P 1.51 | Y -0.311 | V 0.813 | I 0.822 | A -0.293 | E 0.0893 | L 0.541 | M 1.07 | W -0.319 | G 0.382 | R 0.357 | H 0.569 | N 0.889 | F 0.636 | C 1.07 | K 1.65 | Q -0.179 | D 0.205
